T1: human BCMA-Fc/His (1-51) (human, UniProt Q02223 1-51)
T1 construct: also called recombinant human BCMA-Fc/His; recombinant human BCMA-His (Sino Biological Inc.); not shown: Fc region; C-terminal His tag
T1 sequence: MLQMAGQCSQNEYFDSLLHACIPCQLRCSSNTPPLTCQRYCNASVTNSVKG

T2: recombinant human BCMA (ELISA antigen, construct not specified) (human, UniProt Q02223 1-54)
T2 construct: Fc 1-51; Fc/His 1-51; Fc 4-48) was coated in these ELISAs; also called recombinant BCMA; recombinant protein
T2 sequence: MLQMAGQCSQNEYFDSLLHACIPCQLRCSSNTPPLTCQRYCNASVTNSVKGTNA

T3: mouse BCMA (1-49) fused to the Fc region of human IgG1 (mouse; human, UniProt O88472 1-49)
T3 construct: Sino Biological Inc. 50076-M01H; also called 50076-M01H; not shown: Fc region of human IgG1
T3 chain: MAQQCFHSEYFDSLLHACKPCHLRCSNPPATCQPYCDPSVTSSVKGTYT

T4: rat BCMA (1-49) fused to the Fc region of human IgG1 (rat; human)
T4 construct: Sino Biological Inc. 80156-R01H; also called 80156-R01H; not shown: Fc region of human IgG1
T4 chain: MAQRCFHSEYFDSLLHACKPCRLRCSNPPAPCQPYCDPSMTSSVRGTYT

T5: human BCMA expressed on cell surface (H929, OPM-2, CHOK1-hBCMA cells) (human, UniProt Q02223 1-184)
T5 construct: also called cell-surface BCMA; BCMA on cell surface
T5 sequence: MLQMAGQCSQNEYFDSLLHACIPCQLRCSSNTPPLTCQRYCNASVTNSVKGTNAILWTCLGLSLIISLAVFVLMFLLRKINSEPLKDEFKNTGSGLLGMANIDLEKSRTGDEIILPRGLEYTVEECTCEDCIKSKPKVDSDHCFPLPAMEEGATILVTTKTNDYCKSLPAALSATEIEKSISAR


Columns and labels:
human BCMA-Fc/His (1-51) = molecular target: T1, human BCMA-Fc/His (1-51); test: BLI (Octet), antigen on Ni-NTA biosensor, IgG in solution
Experimental: A 96-well black microplate was mounted on a Biosensor tray case, 200 μl of 1XKB was added to each of the 8 wells, and then 8 Ni-NTA biosensors (Fortebio) were inserted thereto for hydration for 10 minutes. For antigen fixation, 5 μg/ml of recombinant human BCMA-His (Sino Biological Inc.) was diluted using 1XKB. Experiments were performed with a threshold of 0.5 to 1.0 nm, and Octet Data Acquisition 9.0 software was activated to create an Octet program template. The first step was for Baseline 1, the second step was for loading, and the threshold was fixed to 0.5 to 1.0 nm. In the third step, which was for Baseline 2, association for 5 minutes and dissociation for 20 minutes were performed. A plate temperature was fixed to 30° C., and the prepared buffer solution was placed in order into a new 96-well black microplate according to the Octet program template. 200 μl of 1XKB used as Baseline 1 and recombinant human BCMA-Fc/His which is an antigen to be loaded were diluted to 5 μg/ml, and 200 μl of the dilution was added thereto. After adding 200 μl of 1XKB used as Baseline 2, 200 μl of the antibody to be reacted with the antigen was dispensed, and the instrument was operated. After completion of the experiment, an association constant (kon), a dissociation constant (kdis), and an equilibrium dissociation constant (KD) for each antibody were analyzed and calculated with Octet Analysis 9.0 software.

[1] = molecular target: T2, recombinant human BCMA (ELISA antigen, …); test: ELISA on coated recombinant human BCMA, antibody titrated, HRP anti-Fab detection, absorbance 450 nm
Experimental: Specific binding abilities of the anti-BCMA IgG antibodies isolated in Example 1.4 to recombinant BCMA protein were analyzed by ELISA.
(§1) Using recombinant human BCMA or monkey BCMA as an antigen, and HRP-conjugated Fab polychronal antibody reagent (Pierce, 31414) as a secondary antibody, ELISA was performed as described in Example 1.3.

[2] = molecular target: T6, monkey (Rhesus) BCMA (1-53) fused to the Fc region of human IgG1 (monkey (Rhesus); human, UniProt Q02223 1-54); test: ELISA on coated monkey (Rhesus) BCMA, antibody titrated, HRP anti-Fab detection, absorbance 450 nm
T6 construct: Sino Biological Inc. 90103-C02H; also called monkey BCMA; Monkey BCMA (1-53); not shown: Fc region of human IgG1
Experimental: as §1

[3] = molecular target: T2, recombinant human BCMA (ELISA antigen, …); test: ELISA on coated recombinant human BCMA, antibody titrated, HRP anti-Fab detection, absorbance 450 nm; remark: listed apart in the source
Experimental: as §1

[4] = molecular target: T6, monkey (Rhesus) BCMA (1-53) fused to …; test: BLI (Octet), monkey BCMA
[5] = molecular target: T2, recombinant human BCMA (ELISA antigen, …); test: ELISA, 100 ng coated antigen
Experimental: (§2) 100 ng of human, monkey, mouse, and rat BCMA antigens prepared in Example 1.1 were coated on the bottom of the plate, and then coated with 3% BSA to block nonspecific binding. Using the selected anti-BCMA IgG antibodies as primary antibodies, and the anti-human Fab HRP (1:20000 dilution) as a secondary antibody, ELISA assay was performed as described in Example 1.3.
(§3) Absorbancies at 450 nm measured with a microplate reader are shown in FIG. 3, and half maximal effective concentrations (EC₅₀) (nM) are shown in Table 9.

[6] = molecular target: T6, monkey (Rhesus) BCMA (1-53) fused to …; test: ELISA, 100 ng coated antigen
Experimental: as §2, §3

[7] = molecular target: T3, mouse BCMA (1-49) fused to the Fc …; test: ELISA, 100 ng coated antigen
Experimental: as §2, §3

[8] = molecular target: T4, rat BCMA (1-49) fused to the Fc region …; test: ELISA, 100 ng coated antigen
Experimental: as §2, §3

[9] = molecular target: T4, rat BCMA (1-49) fused to the Fc region …; test: ELISA on 100 ng coated rat BCMA, antibody titrated, anti-human Fab HRP, absorbance 450 nm
Experimental: as §2, §3

[10] = molecular target: T2, recombinant human BCMA (ELISA antigen, …); test: ELISA on 100 ng coated human BCMA, antibody titrated, anti-human Fab HRP, absorbance 450 nm
Experimental: as §2, §3

[11] = molecular target: T3, mouse BCMA (1-49) fused to the Fc …; test: ELISA on 100 ng coated mouse BCMA, antibody titrated, anti-human Fab HRP, absorbance 450 nm
Experimental: as §2, §3

[12] = molecular target: T6, monkey (Rhesus) BCMA (1-53) fused to …; test: ELISA on 100 ng coated rhesus BCMA, antibody titrated, anti-human Fab HRP, absorbance 450 nm
Experimental: as §2, §3

[13] = molecular target: T5, human BCMA expressed on cell surface …; test: FACS on H929 cells, 10 µg/ml antibody, anti-human Fc-FITC; open histogram shifted right of the filled control
Experimental: (§4) Multiple myeloma cancer cells H929 (ATCC, CRL9068™) and OPM-2 cell line (DSMZ, ACC 50), which are known to express BCMA, were prepared, and human BCMA-overexpressed CHOK1-hBCMA cell line (constructed by ABIBio) were prepared.
(§5) 10 μg/ml of the seven IgG antibodies (B58, 5A6, 5D5, 5B5, 1H, 2G, and 5G) purified in Example 1.4 was added to the prepared cells, incubated at 4° C. for 1 hour, and then washed two times with a PBS buffer solution. The anti-human Fc-FITC was diluted in 1:400, incubated at 4° C. for 1 hour, and then washed with a PBS buffer solution. These processes were repeated. In FIGS. 2A and 2B, MFI indicates mean fluorescence intensity.

[14] = molecular target: T5, human BCMA expressed on cell surface …; test: FACS on OPM-2 cells, 10 µg/ml antibody, anti-human Fc-FITC; open histogram shifted right of the filled control
Experimental: as §4, §5

Binder | Kd (human BCMA-Fc/His (1-51)) [nM] | koff (human BCMA-Fc/His (1-51)) [s⁻¹] | kon (human BCMA-Fc/His (1-51)) [M⁻¹ s⁻¹] | EC50 (read off the curve) [1] [µg/mL] | further results
anti-BCMA IgG antibody 2F8 (antibody, V domains shown) VH: EVQLLESGGGLVQPGGSLRLSCAASGFTFSNYGMSWVRQAPGKGLEWVSEIIPIFDTSNYAQKFQGRFTISRDNSKNTLYLQMNSLRAEDTAVYYCAKIPGNRHDYWGQGTLVTVSS VL: QSVLTQPPSASGTPGQRVTISCTRMQRQSDWYQQLPGTAPKLLIYDNNKRPLGVPDRFSGSKSGTSASLAISGLRSEDEADYYCQSYDSNAYVVFGGGTKLTVLG | 104 | 0.0152 | 147000 | ~0.07 | 
anti-BCMA IgG antibody 1H (antibody, V domains shown) VH: EVQLVESGGGLVQPGGSLRLSCAASGFTFSNYAMSWVRQAPGKGLEWVSGISHSGSSTYYADSVKGRFTISRDNSKNTLYLQMNSLRAEDTAVYYCAKHVYIIEFESLDIWGQGTLVTVSS VL: not shown | 1.45 | 0.000592 | 409000 |  | EC50 (read off the curve) [2]: ~0.2 µg/mL; EC50 (read off the curve) [3]: ~0.08 µg/mL
anti-BCMA IgG antibody 5G (antibody, V domains shown) VH: EVQLVESGGGLVQPGGSLRLSCAASGFTFSNYAMSWVRQAPGKGLEWVSGISQSGSSTYYADSVKGRFTISRDNSKNTLYLQMNSLRAEDTAVYYCAKHAYIIEFESMDIWGQGTLVTVSS VL: not shown | 361 | 0.0143 | 39700 |  | binding result [2]: binds
anti-BCMA IgG antibody 5B5 (antibody, V domains shown, also called 5B5 antibody) VH: EVQLLESGGGLVQPGGSLRLSCAASGFTFSGHYWSWVRQAPGKGLEWVSTVSGSGGDTFYADSVKGRFTISRDNSKNTLYLQMNSLRAEDTAVYYCARGHSVMDVWGQGTLVTVSS VL: EIVLTQSPGTLSLSPGERATLSCRASQGIDSYVAWYQQKPGQAPRLLIYDASLRATGIPDRFSGSGSGTDFTLTISRLEPEDFAVYYCQQYNSWPITFGQGTKLEIKR | 0.202 | 0.00025 | 1.24e+06 | ~0.1 | Kd [4]: 0.461 nM; koff [4]: 0.00221 s⁻¹; kon [4]: 4.79e+06 M⁻¹ s⁻¹; EC50 [5]: 63 nM; EC50 [6]: 82 nM; EC50 [7]: 110 nM; EC50 [8]: 65 nM; EC50 (read off the curve) [9]: ~0.02 µg/mL; EC50 (read off the curve) [10]: ~0.01 µg/mL; EC50 (read off the curve) [11]: ~0.01 µg/mL; EC50 (read off the curve) [12]: ~0.01 µg/mL; MFI [13]: 37.4; MFI [14]: 20.9
anti-BCMA IgG antibody 5C3 (antibody, V domains shown) VH: EVQLLESGGGLVQPGGSLRLSCAASGFTFSDYYIHWVRQAPGKGLEWVSAISGSGGSTYYADSVKGRFTISRDNSKNTLYLQMNSLRAEDTAVYYCASDLGDTTFDSWGQGTLVTVSS VL: EIVLTQSPGTLSLSPGERATLSCQASDDISNYLNWYQQKPGQAPRLLIYGVSNRASGIPDRFSGSGSGTDFTLTISRLEPEDFAVYYCQQSYSTPPITFGQGTKLEIKR | 16.4 | 0.00966 | 591000 | ~0.9 | 
anti-BCMA IgG antibody 2G (antibody, V domains shown) VH: EVQLVESGGGLVQPGGSLRLSCAASGFTFSNYAMSWVRQAPGKGLEWVSAISSSGSTIYYADSVKGRFTISRDNSKNTLYLQMNSLRAEDTAVYYCAKAGYYGSIYAFDYWGQGTLVTVSS VL: DIQMTQSPSSLSASVGDRVTITCRASQSISSYLNWYQQKPGKAPKLLIYATSRLQSGVPSRFSGSGSGTDFTLTISSLQPEDFATYYCQQSSSFPWTFGQGTKVEIKR | 1.08 | 0.00078 | 720000 |  | binding result [2]: binds; EC50 (read off the curve) [3]: ~0.04 µg/mL
anti-BCMA IgG antibody 4H9 (antibody, V domains shown) VH: EVQLLESGGGLVQPGGSLRLSCAASGFTFSGYSMSWVRQAPGKGLEWVSSIYHTGYTYYNPSLKSRFTISRDNSKNTLYLQMNSLRAEDTAVYYCARYKSGAFDIWGQGTLVTVSS VL: EIVLTQSPGTLSLSPGERATLSCRASQSVSRNLAWYQQKPGQAPRLLIYGVSSRATGIPDRFSGSGSGTDFTLTISRLEPEDFAVYYCQQYGSSPPTFGQGTKVEIKR | 1.29 | 0.00179 | 1.38e+06 | ~0.01 | 

Reference: patent publication US20210284749A1 (ABL BIO, published 2021)
